Experimental data reported in patent US20150239980A1 (NEOTOPE BOSCIENCES, published 2015).
Changes are numbered by the printed parent chain. Blank lines part the entries; values can stand above or below the binder they belong to.

Legend:
[1] = molecular target: T1, human MCAM (melanoma cell adhesion molecule) expressed on transfected CHO cells (human, UniProt P43121 24-646); assay: summary of laminin blocking assay on hMCAM CHO cells, competitor laminin 411; vs rodent 2107
T1 construct: also called hMCAM; CD146
T1 chain: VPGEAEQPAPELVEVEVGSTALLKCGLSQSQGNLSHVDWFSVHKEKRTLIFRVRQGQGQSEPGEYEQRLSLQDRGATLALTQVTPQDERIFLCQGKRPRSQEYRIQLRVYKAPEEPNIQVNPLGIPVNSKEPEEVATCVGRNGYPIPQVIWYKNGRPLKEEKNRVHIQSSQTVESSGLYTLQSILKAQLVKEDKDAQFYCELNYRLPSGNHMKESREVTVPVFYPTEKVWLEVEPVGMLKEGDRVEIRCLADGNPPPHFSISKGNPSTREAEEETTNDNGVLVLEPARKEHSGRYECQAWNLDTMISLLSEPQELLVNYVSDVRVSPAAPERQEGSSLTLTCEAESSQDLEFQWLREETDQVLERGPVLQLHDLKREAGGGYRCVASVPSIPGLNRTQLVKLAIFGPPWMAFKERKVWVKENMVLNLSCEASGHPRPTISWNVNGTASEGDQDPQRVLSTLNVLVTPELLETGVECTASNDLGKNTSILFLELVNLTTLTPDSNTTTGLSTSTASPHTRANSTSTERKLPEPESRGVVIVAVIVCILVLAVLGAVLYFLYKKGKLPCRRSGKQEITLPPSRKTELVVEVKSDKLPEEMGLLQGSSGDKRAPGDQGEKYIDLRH
Protocol: (§1) Following incubation for 30-45 minutes, the cells were washed and anti-laminin conjugated to AF650 (NovusBio) was added to detect the bound laminin. The cells were run on a flow cytometer to measure the laminin binding signal.

recombinant hMCAM-His [2] = molecular target: T2, recombinant hMCAM-His (human, UniProt P43121 24-559); assay: competitive ELISA on hMCAM-His, competitor biotinylated rodent or chimeric 2107; Expt. #1; vs rodent 2107
T2 construct: not shown: His tag
T2 chain: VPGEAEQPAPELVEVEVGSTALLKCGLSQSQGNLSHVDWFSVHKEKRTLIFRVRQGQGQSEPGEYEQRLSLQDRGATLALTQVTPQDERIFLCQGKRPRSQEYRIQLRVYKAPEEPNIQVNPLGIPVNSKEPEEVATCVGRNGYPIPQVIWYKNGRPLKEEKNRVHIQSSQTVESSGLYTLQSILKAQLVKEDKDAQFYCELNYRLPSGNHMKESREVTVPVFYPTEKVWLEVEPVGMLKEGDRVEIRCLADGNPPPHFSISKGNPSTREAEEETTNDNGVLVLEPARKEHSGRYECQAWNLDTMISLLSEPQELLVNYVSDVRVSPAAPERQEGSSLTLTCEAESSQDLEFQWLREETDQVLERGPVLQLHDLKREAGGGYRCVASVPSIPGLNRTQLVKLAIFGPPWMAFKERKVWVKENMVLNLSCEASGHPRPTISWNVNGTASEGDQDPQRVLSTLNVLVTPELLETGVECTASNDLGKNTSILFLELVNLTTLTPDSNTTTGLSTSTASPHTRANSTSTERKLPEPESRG
Protocol: (§2) ELISA plates were coated with recombinant hMCAM-His, and blocked with casein buffer to prevent non-specific binding. Biotinylated rodent or chimeric antibody was added at a subsaturating concentration, in the presence or absence of 3× increasing concentrations of unlabeled competitor (humanized antibody, rodent, or chimeric). After washing to remove unbound antibody, streptavidin HRP was added to allow detection of the biotinylated antibody. The ELISA was developed with TMB substrate and the OD450 was measured. The IC50 of the unlabeled competitor was determined using the GraphPad Prism5 software.

recombinant hMCAM-His [3] = molecular target: T2, recombinant hMCAM-His; assay: ForteBio Octet Red, hMCAM-His analyte; Expt. #1; vs rodent 2107
Protocol: (§3) The affinities were measured using the ForteBio Octet Red. Anti-human Fc sensors were used to capture the humanized antibodies, and several concentrations of hMCAMHis analyte were used to determine the affinity using a 1:1 fitting model.

recombinant hMCAM-His [4] = molecular target: T2, recombinant hMCAM-His; assay: ForteBio Octet Red, hMCAM-His analyte; Forte column 1; vs rodent 2107
Protocol: as §3

recombinant hMCAM-His [5] = molecular target: T2, recombinant hMCAM-His; assay: competitive ELISA on hMCAM-His, competitor biotinylated rodent or chimeric 2107; Expt. #2; vs rodent 2107
Protocol: as §2

[6] = molecular target: T1, human MCAM (melanoma cell adhesion …); assay: laminin/FACS on hMCAM CHO cells, competitor laminin 411; Expt#2; reference row with 1.0 is chimeric 2107
Protocol: as §1

recombinant hMCAM-His [7] = molecular target: T2, recombinant hMCAM-His; assay: summary of ForteBio and competitive ELISA on hMCAM-His; vs rodent 2107
Protocol: as §2, §3

recombinant hMCAM-His [8] = molecular target: T2, recombinant hMCAM-His; assay: competitive ELISA on hMCAM-His, competitor biotinylated rodent or chimeric 2107; vs rodent 2107
Protocol: as §2

recombinant hMCAM-His [9] = molecular target: T2, recombinant hMCAM-His; assay: ForteBio Octet Red, hMCAM-His analyte; Forte column 2; vs rodent 2107
Protocol: as §3

[10] = molecular target: T1, human MCAM (melanoma cell adhesion …); assay: laminin/FACS on hMCAM CHO cells, competitor laminin 411; Expt#1; vs rodent 2107
Protocol: as §1

recombinant hMCAM-His [11] = molecular target: T2, recombinant hMCAM-His; assay: ForteBio Octet Red, hMCAM-His analyte; Expt. #2; vs rodent 2107
Protocol: as §3

[12] = molecular target: T1, human MCAM (melanoma cell adhesion …); assay: flow cytometry, human MCAM CHO cells preincubated with antibody, competitor recombinant human laminin 411 at 20 ug/ml
Protocol: The 87 independent mouse fusion clones and 26 independent rat fusion clones described in Example 10 above as being capable of (i) binding to human MCAM, and (ii) blocking the interaction between human MCAM and the α-4 chain of laminin were further characterized as follows. First, IC50 quantitation for the ability of the monoclonal antibody to block the binding of human MCAM to the α-4 chain of laminin was determined as follows. CHO cells expressing human MCAM were incubated with an anti-human MCAM antibody (at various concentrations) for 30 minutes at 4 degrees Celsius. […] Unbound laminin was then washed away, and the laminin bound to the surface of the cells was detected with fluorescently labeled anti-laminin antibodies. After washing, the amount of laminin bound to the surface was detected by flow cytometry, and IC50s were calculated based on the mean fluorescent intensity.
These six anti-MCAM monoclonal antibody clones are herein referred to as (i) the mouse anti-human MCAM monoclonal clones 1174.1.3, 1414.1.2, 1415.1.1, and 1749.1.3, and (ii) the rat anti-human MCAM monoclonal antibody clones 2120.4.19 and 2107.4.10. […] As such, each of these specific monoclonal antibodies was very capable of binding to human MCAM and inhibiting the interaction of cell-expressed human MCAM with its α-4 laminin binding ligand.

fold reduction in potency compared to the rodent [1]: < 3 fold | fold over rodent (competitive ELISA) (recombinant hMCAM-His [2]): 1.29 fold | fold over rodent (Forte affinity) (recombinant hMCAM-His [3]): 2.37 fold | fold over rodent (Forte affinity) (recombinant hMCAM-His [4]): 3 fold | fold over rodent (competitive ELISA) (recombinant hMCAM-His [5]): 1.32 fold | fold over rodent (blocking, laminin/FACS) [6]: 1.4 fold | fold reduction in affinity compared to the rodent (recombinant hMCAM-His [7]): < 3 fold | fold over rodent (competitive ELISA) (recombinant hMCAM-His [8]): 1.4 fold | fold over rodent (Forte affinity) (recombinant hMCAM-His [9]): 2.8 fold | fold over rodent (blocking, laminin/FACS) [10]: 1.9 fold | fold over rodent (Forte affinity) (recombinant hMCAM-His [11]): 3.4 fold
B1: h2107_VH1 + h2107_VL2 (antibody, human IgG1, V domains shown)
VH: QVTLKESGPVLVKPTETLTLTCTVSGFSLTSNGVSWVRQPPGKALEWIAAISSGGSTYYNSAFKSRLTISRDTSKSQVVLTMTNMDPVDTATYYCARHRPFYFDYWGQGTLVTVSS
VL: DIQMTQSPSSLSASVGDRVTITCKGSQNIYKSLAWFQLKPGKVPKLLIYDANSLQTGIPSRFSGSGSGTDFTLTISSLQPEDVATYYCQQYYSGYTFGGGTKVEIK
notes: also called VH1VL2

fold reduction in potency compared to the rodent [1]: < 3 fold | fold over rodent (competitive ELISA) (recombinant hMCAM-His [2]): 1.32 fold | fold over rodent (Forte affinity) (recombinant hMCAM-His [3]): 2.54 fold | fold over rodent (Forte affinity) (recombinant hMCAM-His [4]): 2.7 fold | fold over rodent (competitive ELISA) (recombinant hMCAM-His [5]): 1.48 fold | fold over rodent (blocking, laminin/FACS) [6]: 1.5 fold | fold reduction in affinity compared to the rodent (recombinant hMCAM-His [7]): < 3 fold | fold over rodent (competitive ELISA) (recombinant hMCAM-His [8]): 1.3 fold | fold over rodent (Forte affinity) (recombinant hMCAM-His [9]): 2.9 fold | fold over rodent (blocking, laminin/FACS) [10]: 1.4 fold | fold over rodent (Forte affinity) (recombinant hMCAM-His [11]): 3.58 fold
B2: h2107_VH2 + h2107_VL2 (antibody, human IgG1, V domains shown)
VH: B1 VH with T68S
VL: B1 VL
notes: also called h2107VH2VL2; VH2VL2

fold over rodent (competitive ELISA) (recombinant hMCAM-His [2]): 1 fold | fold over rodent (Forte affinity) (recombinant hMCAM-His [3]): 1 fold | IC50 [12]: 0.29 µg/mL | fold over rodent (Forte affinity) (recombinant hMCAM-His [4]): 1 fold | fold over rodent (competitive ELISA) (recombinant hMCAM-His [5]): 1 fold | fold over rodent (competitive ELISA) (recombinant hMCAM-His [8]): 1 fold | fold over rodent (Forte affinity) (recombinant hMCAM-His [9]): 1 fold | fold over rodent (blocking, laminin/FACS) [10]: 1 fold | fold over rodent (Forte affinity) (recombinant hMCAM-His [11]): 1 fold
B3: rat anti-human MCAM monoclonal antibody clone 2107.4.10 (antibody, V domains shown)
VH: QVQLKESGPGLVQSSQTLSLTCTVSGFSLTSNGVSWVRQPPGKGLEWIAAISSGGSTYYNSAFKSRLSISRNTSKSQVLLKMNSLQTEDTGMYFCARHRPFYFDYWGQGVMVTVSS
VL: DIQVTQSPSLLSASVGDRVTLNCKGSQNIYKSLAWFRLKRGEAPKLLIYDANSLQTGIPSRFSGSGSGTDFTLTITSLQPEDVATYFCQQYYSGYTFGAGTKLELK
notes: rat hybridoma antibody; elsewhere '83 or 84'); also called rodent 2107; murine 2107.4.10.18 anti-MCAM antibody
